# Like-named read-outs stand apart in the source and are kept apart here.
# B1: mAb14257 (antibody)
# heavy: not shown
# light: QSVLTQPPSVSGAPGQRVTISCTGTSSNIGADFDVHWYQQFPGTAPKLLIYGHTNRPSGIPDRFSGSKSGTSASLAITGLQAEDEADYYCQSYDSSLSGSVVFGGGTKLTVLGQPKAAPSVTLFPPSSEELQANKATLVCLISDFYPGAVTVAWKADSSPVKAGVETTTPSKQSNNKYAASSYLSLTPEQWKSHRSYSCQVTHEGSTVEKTVAPTECS
# B2: mAb14256 (antibody)
# heavy: not shown
# light: QSVLTQPPSVSGAPGQRVTISCTGSSSNIGTHYDVHWYQQLPGTAPKLLIYGNSNRPSGVPDRFSGSKSGTSASLAITGLQAEDEADYYCQSFDNSLTAPYVFGTGTKVTVLGQPKAAPSVTLFPPSSEELQANKATLVCLISDFYPGAVTVAWKADSSPVKAGVETTTPSKQSNNKYAASSYLSLTPEQWKSHRSYSCQVTHEGSTVEKTVAPTECS
# Assays:
# SARS-COV-2 RBD-MMH [1] = molecular target: SARS-COV-2 RBD-MMH (SARS-CoV-2); experiment: SPR 37C
# SARS-COV-2 RBD-MMH [2] = molecular target: SARS-COV-2 RBD-MMH (SARS-CoV-2); experiment: SPR 37C, run with dissociation at pH 5.0
# SARS-COV-2 RBD-MMH [3] = molecular target: SARS-COV-2 RBD-MMH (SARS-CoV-2); experiment: SPR 37C, run with dissociation at pH 7.4
# [4] = molecular target: T1, human FcγR3a 176Val allotype receptor (human, UniProt P08637 17-254); experiment: cell-based or functional assay
# [5] = molecular target: T1, human FcγR3a 176Val allotype receptor; experiment: cell-based or functional assay; remark: listed apart in the source
Binder,t½ Ratio of pH 7.4 to pH 5.0 (SARS-COV-2 RBD-MMH [1]),RBD.mmh Bound at pH 7.4 (RU) (SARS-COV-2 RBD-MMH [2]),koff (SARS-COV-2 RBD-MMH [2]) [s⁻¹],t½ (SARS-COV-2 RBD-MMH [2]) [s],RBD.mmh Bound at pH 7.4 (RU) (SARS-COV-2 RBD-MMH [3]),koff (SARS-COV-2 RBD-MMH [3]) [s⁻¹],"EC50 (M), Jurkat/CD20/spike [4] [M]","Fold induction, Jurkat CD20 [4] [fold]","Fold induction, Jurkat/CD20/spike [4] [fold]","EC50 (M), Jurkat/CD20/spike [5] [M]","Fold induction, Jurkat CD20 [5] [fold]","Fold induction, Jurkat/CD20/spike [5] [fold]"
B1,2.1,45.2,0.0172,42,82.3,0.00778,2.63e-10,1.2,2.2,2.39e-10,1,8.8
B2,0.8,54.1,0.00927,72,80.2,0.0111,5.75e-10,1.1,2,4.48e-10,1,6.1

# — patent publication US20260069689A1 (Regeneron, published 2026)
